Test results from US20070249813A1 (AbbVie / Abbott, published 2007).

Columns and labels:
[1] = target: T1, biotinylated recombinant human TNFα (human, UniProt P01375 77-233, biotinylated (D-biotinyl-ε-aminocaproic acid N-hydroxysuccinimide ester, 2:1 molar ratio of biotin to rhTNFα)); test: SPR (BIAcore), biotinylated rhTNFα, scFv
T1 construct: mature; Immobilized via streptavidin on the BIAcore chip; also called biotinylated rhTNFα; biotinylated rhTNF
Method: Before injection of the protein and immediately afterward, PBS buffer alone flowed through each flow cell. […] Antibodies (20 μg/ml) were diluted in PBS running buffer and 25 μl aliquots were injected through the immobilized protein matrices at a flow rate of 5 μl/min. Prior to injection of antibody, and immediately afterwards, PBS buffer alone flowed through each flow cell. The net difference in baseline signal and signal after completion of antibody injection was taken to represent the binding value of the particular sample. Biosensor matrices were regenerated using 100 mM HCI before injection of the next sample. To determine the off rate (Koff), on rate (Kₒₙ), association rate (Kₐ) and dissociation rate (Kd) constants, BIAcore kinetic evaluation software (version 2.1) was used.

[2] = target: recombinant human TNFα (human, UniProt P01375 77-233, The active form is a noncovalent homotrimer; one protomer is given.); test: cell-based or functional assay
recombinant human TNFα, sequence (P01375 77-233 limits assumed): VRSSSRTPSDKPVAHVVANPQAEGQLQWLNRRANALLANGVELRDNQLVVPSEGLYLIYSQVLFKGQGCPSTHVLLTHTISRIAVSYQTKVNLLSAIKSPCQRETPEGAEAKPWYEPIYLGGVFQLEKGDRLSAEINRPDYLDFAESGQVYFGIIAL

T1 sequence (P01375 77-233 limits assumed): as above

B1: 2SD4 VH/EP B12 scFv (scFv, V domains shown)
VH: QVQLVESGGGLVQPGRSLRLSCAASGFTFDDYAMHWVRQAPGKGLDWVSAITWNSGHIDYADSVEGRFAVSRDNAKNALYLQMNSLRPEDTAVYYCTKASYLSTSSSLDNWGQGTLVTVSS
VL: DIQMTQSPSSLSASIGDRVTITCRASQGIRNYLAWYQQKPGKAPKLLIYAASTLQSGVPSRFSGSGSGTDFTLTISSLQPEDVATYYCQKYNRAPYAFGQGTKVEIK
notes: scFv
In the case of B1, the koff [1] is reported as 0.0067 s⁻¹.

B2: 2SD4 VH/VL0.1F4 scFv (scFv, V domains shown)
VH: QVQLVESGGGLVQPGRSLRLSCAASGFTFDDYAMHWVRQAPGKGLDWVSAITWNSGHIDYADSVEGRFAVSRDNAKNALYLQMNSLRPEDTAVYYCTKASYLSTSSSLDNWGQGTLVTVSS
VL: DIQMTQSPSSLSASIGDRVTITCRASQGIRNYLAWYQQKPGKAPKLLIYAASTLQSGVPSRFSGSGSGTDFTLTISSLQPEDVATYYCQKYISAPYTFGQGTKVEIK
notes: scFv
B2 showed a koff [1] of 0.0176 s⁻¹.

B3: 2SD4 VH/VL0.1H8 scFv (scFv, V domains shown)
VH: QVQLVESGGGLVQPGRSLRLSCAASGFTFDDYAMHWVRQAPGKGLDWVSAITWNSGHIDYADSVEGRFAVSRDNAKNALYLQMNSLRPEDTAVYYCTKASYLSTSSSLDNWGQGTLVTVSS
VL: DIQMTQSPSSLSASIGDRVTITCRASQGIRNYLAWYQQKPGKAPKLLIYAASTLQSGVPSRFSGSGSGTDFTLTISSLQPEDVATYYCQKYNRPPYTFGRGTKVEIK
notes: scFv
B3 gave a koff [1] of 0.0114 s⁻¹.

B4: 2SD4 VH/VL1B7 scFv (scFv, V domains shown)
VH: QVQLVESGGGLVQPGRSLRLSCAASGFTFDDYAMHWVRQAPGKGLDWVSAITWNSGHIDYADSVEGRFAVSRDNAKNALYLQMNSLRPEDTAVYYCTKASYLSTSSSLDNWGQGTLVTVSS
VL: DIQMTQSPSSLSASIGDRVTITCRASQGIRNYLAWYQQKPGKAPKLLIYAASTLQSGVPSRFSGSGSGTDFTLTISSLQPEDVATYYCQQYNSAPDTWGQGTKVEIK
notes: scFv
B4 gave a koff [1] of 0.013 s⁻¹.

B5: 2SD4 VH/VL1C1 scFv (scFv, V domains shown)
VH: QVQLVESGGGLVQPGRSLRLSCAASGFTFDDYAMHWVRQAPGKGLDWVSAITWNSGHIDYADSVEGRFAVSRDNAKNALYLQMNSLRPEDTAVYYCTKASYLSTSSSLDNWGQGTLVTVSS
VL: DIQMTQSPSSLSASIGDRVTITCRASQGIRNYLAWYQQKPGKAPKLLIYAASTLQSGVPSRFSGSGSGTDFTLTISSLQPEDVATYYCQKYNSDPYTFGQGTKVEIK
notes: scFv
Work on B5 yielded a koff [1] of 0.0136 s⁻¹.

B6: 2SD4 VH/VL1C7 scFv (scFv, V domains shown)
VH: QVQLVESGGGLVQPGRSLRLSCAASGFTFDDYAMHWVRQAPGKGLDWVSAITWNSGHIDYADSVEGRFAVSRDNAKNALYLQMNSLRPEDTAVYYCTKASYLSTSSSLDNWGQGTLVTVSS
VL: DIQMTQSPSSLSASIGDRVTITCRASQGIRNYLAWYQQKPGKAPKLLIYAASTLQSGVPSRFSGSGSGTDFTLTISSLQPEDVATYYCQKYNSAPYNFGQGTKVEIK
notes: scFv
B6 gave a koff [1] of 0.02 s⁻¹.

B7: 2SD4 VH/VL10E4 scFv (scFv, V domains shown)
VH: QVQLVESGGGLVQPGRSLRLSCAASGFTFDDYAMHWVRQAPGKGLDWVSAITWNSGHIDYADSVEGRFAVSRDNAKNALYLQMNSLRPEDTAVYYCTKASYLSTSSSLDNWGQGTLVTVSS
VL: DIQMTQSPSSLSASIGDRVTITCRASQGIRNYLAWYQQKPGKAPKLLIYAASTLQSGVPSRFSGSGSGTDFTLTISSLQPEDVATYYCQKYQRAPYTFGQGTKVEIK
notes: scFv
B7 gave a koff [1] of 0.0096 s⁻¹.

B8: 2SD4 VH/VL10F4 scFv (scFv, V domains shown)
VH: QVQLVESGGGLVQPGRSLRLSCAASGFTFDDYAMHWVRQAPGKGLDWVSAITWNSGHIDYADSVEGRFAVSRDNAKNALYLQMNSLRPEDTAVYYCTKASYLSTSSSLDNWGQGTLVTVSS
VL: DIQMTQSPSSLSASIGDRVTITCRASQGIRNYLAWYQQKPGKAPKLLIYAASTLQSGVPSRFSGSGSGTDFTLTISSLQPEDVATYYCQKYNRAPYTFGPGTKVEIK
notes: scFv
B8 was tested, and the koff [1] was 0.0111 s⁻¹.

B9: 2SD4 VH/VL100A9 scFv (scFv, V domains shown)
VH: QVQLVESGGGLVQPGRSLRLSCAASGFTFDDYAMHWVRQAPGKGLDWVSAITWNSGHIDYADSVEGRFAVSRDNAKNALYLQMNSLRPEDTAVYYCTKASYLSTSSSLDNWGQGTLVTVSS
VL: DIQMTQSPSSLSASIGDRVTITCRASQGIRNYLAWYQQKPGKAPKLLIYAASTLQSGVPSRFSGSGSGTDFTLTISSLQPEDVATYYCQKYSSAPYTFGQGTKVEIK
notes: scFv
B9 was tested, and the koff [1] was 0.0133 s⁻¹.

B10: 2SD4 VH/VL100D2 scFv (scFv, V domains shown)
VH: QVQLVESGGGLVQPGRSLRLSCAASGFTFDDYAMHWVRQAPGKGLDWVSAITWNSGHIDYADSVEGRFAVSRDNAKNALYLQMNSLRPEDTAVYYCTKASYLSTSSSLDNWGQGTLVTVSS
VL: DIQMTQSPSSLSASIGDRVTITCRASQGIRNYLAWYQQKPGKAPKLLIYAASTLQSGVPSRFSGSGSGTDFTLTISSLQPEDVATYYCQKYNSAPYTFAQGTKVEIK
notes: scFv
In the case of B10, the koff [1] is reported as 0.0141 s⁻¹.

B11: 2SD4 VH/VLL0F10 scFv (scFv, V domains shown)
VH: QVQLVESGGGLVQPGRSLRLSCAASGFTFDDYAMHWVRQAPGKGLDWVSAITWNSGHIDYADSVEGRFAVSRDNAKNALYLQMNSLRPEDTAVYYCTKASYLSTSSSLDNWGQGTLVTVSS
VL: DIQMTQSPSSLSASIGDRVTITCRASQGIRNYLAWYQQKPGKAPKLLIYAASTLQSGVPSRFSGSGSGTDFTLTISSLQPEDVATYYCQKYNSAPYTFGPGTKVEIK
notes: scFv
B11 was tested, and the koff [1] was 0.0134 s⁻¹.

B12: 2SD4 VH/VLLOG7 scFv (scFv, V domains shown)
VH: QVQLVESGGGLVQPGRSLRLSCAASGFTFDDYAMHWVRQAPGKGLDWVSAITWNSGHIDYADSVEGRFAVSRDNAKNALYLQMNSLRPEDTAVYYCTKASYLSTSSSLDNWGQGTLVTVSS
VL: DIQMTQSPSSLSASIGDRVTITCRASQGIRNYLAWYQQKPGKAPKLLIYAASTLQSGVPSRFSGSGSGTDFTLTISSLQPEDVATYYCQKYNSAPYNFGQGTKVEIK
notes: scFv
For B12, the koff [1] was 0.0156 s⁻¹.

B13: 2SD4 VH/VLLOG9 scFv (scFv, V domains shown)
VH: QVQLVESGGGLVQPGRSLRLSCAASGFTFDDYAMHWVRQAPGKGLDWVSAITWNSGHIDYADSVEGRFAVSRDNAKNALYLQMNSLRPEDTAVYYCTKASYLSTSSSLDNWGQGTLVTVSS
VL: DIQMTQSPSSLSASIGDRVTITCRASQGIRNYLAWYQQKPGKAPKLLIYAASTLQSGVPSRFSGSGSGTDFTLTISSLQPEDVATYYCQKYTSAPYTFGQGTKVEIK
notes: scFv
With B13 the koff [1] was 0.0146 s⁻¹.

B14: 2SD4 VH/VLLOH1 scFv (scFv, V domains shown)
VH: QVQLVESGGGLVQPGRSLRLSCAASGFTFDDYAMHWVRQAPGKGLDWVSAITWNSGHIDYADSVEGRFAVSRDNAKNALYLQMNSLRPEDTAVYYCTKASYLSTSSSLDNWGQGTLVTVSS
VL: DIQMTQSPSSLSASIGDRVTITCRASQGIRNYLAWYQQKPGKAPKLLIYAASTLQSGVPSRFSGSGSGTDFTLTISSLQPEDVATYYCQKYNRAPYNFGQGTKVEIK
notes: scFv
B14 gave a koff [1] of 0.0117 s⁻¹.

B15: 2SD4 VH/VLLOH10 scFv (scFv, V domains shown)
VH: QVQLVESGGGLVQPGRSLRLSCAASGFTFDDYAMHWVRQAPGKGLDWVSAITWNSGHIDYADSVEGRFAVSRDNAKNALYLQMNSLRPEDTAVYYCTKASYLSTSSSLDNWGQGTLVTVSS
VL: DIQMTQSPSSLSASIGDRVTITCRASQGIRNYLAWYQQKPGKAPKLLIYAASTLQSGVPSRFSGSGSGTDFTLTISSLQPEDVATYYCQKYNSAAYSFGQGTKVEIK
notes: scFv
Work on B15 yielded a koff [1] of 0.0112 s⁻¹.

B16: VH1A11/2SD4 VL scFv (scFv, V domains shown)
VH: QVQLVESGGGLVQPGRSLRLSCAASGFTFDDYAMHWVRQAPGKGLDWVSAITWNSGHIDYADSVEGRFAVSRDNAKNALYLQMNSLRPEDTAVYYCTKASYLSTSSSLDDWGQGTLVTVSS
VL: DIQMTQSPSSLSASIGDRVTITCRASQGIRNYLAWYQQKPGKAPKLLIYAASTLQSGVPSRFSGSGSGTDFTLTISSLQPEDVATYYCQKYNSAPYAFGQGTKVEIK
notes: scFv
For B16, the koff [1] was 0.0134 s⁻¹.

B17: VH1B11/2SD4 VL scFv (scFv, V domains shown)
VH: QVQLVESGGGLVQPGRSLRLSCAASGFTFDDYAMHWVRQAPGKGLDWVSAITWNSGHIDYADSVEGRFAVSRDNAKNALYLQMNSLRPEDTAVYYCTKASYLSTSSSLDKWGQGTLVTVSS
VL: DIQMTQSPSSLSASIGDRVTITCRASQGIRNYLAWYQQKPGKAPKLLIYAASTLQSGVPSRFSGSGSGTDFTLTISSLQPEDVATYYCQKYNSAPYAFGQGTKVEIK
notes: scFv
With B17 the koff [1] was 0.0098 s⁻¹.

B18: VH1B12/2SD4 VL scFv (scFv, V domains shown)
VH: QVQLVESGGGLVQPGRSLRLSCAASGFTFDDYAMHWVRQAPGKGLDWVSAITWNSGHIDYADSVEGRFAVSRDNAKNALYLQMNSLRPEDTAVYYCAKASYLSTSFSLDYWGQGTLVTVSS
VL: DIQMTQSPSSLSASIGDRVTITCRASQGIRNYLAWYQQKPGKAPKLLIYAASTLQSGVPSRFSGSGSGTDFTLTISSLQPEDVATYYCQKYNSAPYAFGQGTKVEIK
notes: scFv
In the case of B18, the koff [1] is reported as 0.0101 s⁻¹.

B19: VH1D8/2SD4 VL scFv (scFv, V domains shown)
VH: QVQLVESGGGLVQPGRSLRLSCAASGFTFDDYAMHWVRQAPGKGLDWVSAITWNSGHIDYADSVEGRFAVSRDNAKNALYLQMNSLRPEDTAVYYCARASYLSTSSSLDYWGQGTLVTVSS
VL: DIQMTQSPSSLSASIGDRVTITCRASQGIRNYLAWYQQKPGKAPKLLIYAASTLQSGVPSRFSGSGSGTDFTLTISSLQPEDVATYYCQKYNSAPYAFGQGTKVEIK
notes: scFv
B19 gave a koff [1] of 0.0095 s⁻¹.

B20: VH1E4/2SD4 VL scFv (scFv, V domains shown)
VH: QVQLVESGGGLVQPGRSLRLSCAASGFTFDDYAMHWVRQAPGKGLDWVSAITWNSGHIDYADSVEGRFAVSRDNAKNALYLQMNSLRPEDTAVYYCAKASYLSTSSSLHYWGQGTLVTVSS
VL: DIQMTQSPSSLSASIGDRVTITCRASQGIRNYLAWYQQKPGKAPKLLIYAASTLQSGVPSRFSGSGSGTDFTLTISSLQPEDVATYYCQKYNSAPYAFGQGTKVEIK
notes: scFv
Work on B20 yielded a koff [1] of 0.0159 s⁻¹.

B21: VH1F6/2SD4 VL scFv (scFv, V domains shown)
VH: QVQLVESGGGLVQPGRSLRLSCAASGFTFDDYAMHWVRQAPGKGLDWVSAITWNSGHIDYADSVEGRFAVSRDNAKNALYLQMNSLRPEDTAVYYCAKASFLSTSSSLEYWGQGTLVTVSS
VL: DIQMTQSPSSLSASIGDRVTITCRASQGIRNYLAWYQQKPGKAPKLLIYAASTLQSGVPSRFSGSGSGTDFTLTISSLQPEDVATYYCQKYNSAPYAFGQGTKVEIK
notes: scFv
Binder B21 has a koff [1] of 0.0229 s⁻¹.

B22: VH1G1/2SD4 VL scFv (scFv, V domains shown)
VH: QVQLVESGGGLVQPGRSLRLSCAASGFTFDDYAMHWVRQAPGKGLDWVSAITWNSGHIDYADSVEGRFAVSRDNAKNALYLQMNSLRPEDTAAYYCAKASYLSTSSSLDYWGQGTLVTVSS
VL: DIQMTQSPSSLSASIGDRVTITCRASQGIRNYLAWYQQKPGKAPKLLIYAASTLQSGVPSRFSGSGSGTDFTLTISSLQPEDVATYYCQKYNSAPYAFGQGTKVEIK
notes: scFv
Binder B22 has a koff [1] of 0.0214 s⁻¹.

B23: 2SD4/2SD4 (format printed as scFv/IgG1/IgG4) (antibody, V domains shown)
VH: QVQLVESGGGLVQPGRSLRLSCAASGFTFDDYAMHWVRQAPGKGLDWVSAITWNSGHIDYADSVEGRFAVSRDNAKNALYLQMNSLRPEDTAVYYCTKASYLSTSSSLDNWGQGTLVTVSS
VL: DIQMTQSPSSLSASIGDRVTITCRASQGIRNYLAWYQQKPGKAPKLLIYAASTLQSGVPSRFSGSGSGTDFTLTISSLQPEDVATYYCQKYNSAPYAFGQGTKVEIK
In the case of B23, the “IC50, neutralization of TNFα-induced L929 cytotoxicity” value [2] is reported as 300 nM.

B24: VH1-D2/LOE7 scFv (scFv, V domains shown)
VH: QVQLVESGGGLVQPGRSLRLSCAASGFTFDDYAMHWVRQAPGKGLDWVSAITWNSGHIDYADSVEGRFAVSRDNAKNALYLQMNSLRPEDTAVYYCAKVSYLSTASSLDYWGQGTLVTVSS
VL: not shown
notes: scFv; not shown: the scFv linker and the order of the domains
In the case of B24, the koff [1] is reported as 0.00046 s⁻¹.
